Reference: US20240238445A1, “INHIBITORS AND USES THEREOF” (NEURACLE SCIENCE CO., LTD., priority 2021, published 2024)
Ends that are not written are not given here.

Key:
[1] = target: binding of FAM19A5 protein to full-length ectodomain of the LRRC4B protein (amino acids 36-576 of SEQ ID NO: 2) (Homo sapiens, UniProt Q7Z5A7); test: Competitive inhibition assay, plate coated with full-length ectodomain of LRRC4B (amino acids 36-576); conditions: for inhibition of interaction between FAM19A5 and the coated LRRC4B protein fragments (in words): statement covers both coats, LRRC4B (36-576) and LRRC4B (453-576); for inhibition of FAM19A5 binding to coated full-length LRRC4B ectodomain protein (in words): increasing concentrations, FAM19A5 5 ng/mL, 100 nM coat
Protocol: Next, to further assess the role that the binding domain of the LRRC4B protein has on the interaction between FAM19A5 protein and members of the LRRC4 protein family, a competitive inhibition assay was used to determine whether different LRRC4B deletion constructs from Example 2 could inhibit the binding of FAM19A5 to the full-length ectodomain of the LRRC4B protein (i.e., amino acids 36-576 of SEQ ID NO: 2; SEQ ID NO: 5). Briefly, 100 nM of the full-length ectodomain of the LRRC4B protein was used to coat a plate, and then recombinant FAM19A5 protein (5 ng/mL) was added to the plate in combination with the following LRRC4B deletion constructs (increasing concentrations): (1) LRRC4B (453-576) (i.e., construct #11 in Table 6); (2) LRRC4B (453-576) mutant (comprises alanine substitutions at positions 488 and 489 of SEQ ID NO: 2; SEQ ID NO: 16); (3) LRRC4B (484-576) (i.e., construct #12 in Table 6); (4) LRRC4B (482-576); (5) LRRC4B (482-497); and (6) LRRC4B (498-576). The plates were incubated at 37° C., and then, the amount of FAM19A5 bound to the coated LRRC4B ectodomain protein was measured using HRP-conjugated anti-FAM19A5 (1-65) antibody.
As described in Example 3, there appeared to be much similarity in the binding domains of the different members of the LRRC4 family. […] Then, recombinant FAM19A5 protein (5 ng/mL) was added in combination with one of the following: (i) LRRC4B (484-576) protein fragment, (ii) LRRC4B (453-576, AA) protein fragment, and (iii) synthetic FB-20 peptide. The plates were incubated at 37° C., and then, the amount of FAM19A5 protein bound to the coated LRRC4, LRRC4B, or LRRC4C proteins was measured using anti-FAM19A5 (1-65) antibody.
(§1) Next, to assess whether polypeptides comprising the binding domains of LRRC4 or LRRC4C proteins can have similar inhibitory effects on LRRC4B protein binding, the following synthetic peptides were constructed: (1) FBC4-23 (contains the binding domain of the LRRC4 protein, i.e., YSFFTTVTVETTE); and (2) FBC4C-23 (contains the binding domain of the LRRC4C protein, i.e., FSYFSTVTVETME). Then, the ability of the peptides to inhibit the binding of LRRC4 protein family members to FAM19A5 protein was assessed using a competitive inhibition assay. Briefly, plates were coated with 100 nM of either LRRC4B protein fragment #1 (amino acids 36-576 of SEQ ID NO: 2; SEQ ID NO: 5) or LRRC4B protein fragment #2 (amino acids 453-576 of SEQ ID NO: 2; SEQ ID NO: 7). Then, recombinant FAM19A5 protein (5 ng/ml for plates coated with LRRC4B fragment #1; and 1 ng/mL for plates coated with LRRC4B fragment #2) was added to the plates in combination with 20 nM of the FBC4-23, FBC4C-23, and FB-20 peptides. The plates were incubated at 37° C. and then, the amount of FAM19A5 protein bound to the coated LRRC4B protein fragments was assessed using HRP-conjugated anti-FAM19A5 (1-65) antibody.
Next, to determine the minimal sequence required to inhibit the interaction of FAM19A5 and members of the LRRC4 protein family, ten FB-20 peptide variants were constructed by serially deleting one or more amino acids from the N-terminus or C-terminus of the FB-20 peptide. Then, a competitive inhibition assay was used to assess the ability of the different FB-20 peptide variants to inhibit the interaction between FAM19A5 and LRRC4B protein. Again, plates were coated with 100 nM of either LRRC4B protein fragment #1 (amino acids 36-576 of SEQ ID NO: 2; SEQ ID NO: 5) or LRRC4B protein fragment #2 (amino acids 453-576 of SEQ ID NO: 2; SEQ ID NO: 7). Then, recombinant FAM19A5 protein (5 ng/ml for plates coated with LRRC4B fragment #1; and 1 ng/mL for plates coated with LRRC4B fragment #2) was added to the plates in combination with 20 nM of the different peptides described above. After incubating the plates at 37° C., the amount of FAM19A5 protein bound to the coated LRRC4B protein fragments was assessed using HRP-conjugated anti-FAM19A5 (1-65) antibody. […]

[2] = target: binding of FAM19A5 protein to LRRC4B (amino acids 453-576)-hFc (Homo sapiens, UniProt Q7Z5A7); test: Competitive inhibition assay, plate coated with LRRC4B (amino acids 453-576)-hFc, peptides at 20 nM
Text: as §1
Next, to determine the minimal sequence required to inhibit the interaction of FAM19A5 and members of the LRRC4 protein family, ten FB-20 peptide variants were constructed by serially deleting one or more amino acids from the N-terminus or C-terminus of the FB-20 peptide. Then, a competitive inhibition assay was used to assess the ability of the different FB-20 peptide variants to inhibit the interaction between FAM19A5 and LRRC4B protein. Again, plates were coated with 100 nM of either LRRC4B protein fragment #1 (amino acids 36-576 of SEQ ID NO: 2; SEQ ID NO: 5) or LRRC4B protein fragment #2 (amino acids 453-576 of SEQ ID NO: 2; SEQ ID NO: 7). Then, recombinant FAM19A5 protein (5 ng/ml for plates coated with LRRC4B fragment #1; and 1 ng/mL for plates coated with LRRC4B fragment #2) was added to the plates in combination with 20 nM of the different peptides described above. After incubating the plates at 37° C., the amount of FAM19A5 protein bound to the coated LRRC4B protein fragments was assessed using HRP-conjugated anti-FAM19A5 (1-65) antibody.
To identify the critical amino acid residues, multiple FB-20 peptide mutants were constructed, in which the individual residues of the core binding domain (i.e., YTYFTTVTVETLE; SEQ ID NO: 15) were substituted with alanine (A) or asparagine (N). Then, the ability of these FB-20 peptide mutants to inhibit the interaction between LRRC4B and FAM19A5 proteins was assessed, as described in Examples 3 and 4.

[3] = Table 10, alanine/asparagine mutants
[4] = Table 9, deletion variants, 20 nM peptide, FAM19A5 5 ng/ml
[5] = Table 9, deletion variants, 20 nM peptide, FAM19A5 1 ng/mL

binding of FAM19A5 protein to LRRC4B (amino acids 453-576)-hFc, sequence (Q7Z5A7 44-132): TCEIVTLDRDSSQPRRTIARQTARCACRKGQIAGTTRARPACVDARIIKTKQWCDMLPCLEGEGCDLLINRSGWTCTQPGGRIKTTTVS
binding of FAM19A5 protein to full-length ectodomain of the LRRC4B protein (amino acids 36-576 of SEQ ID NO: 2), sequence (Q7Z5A7 44-132): as above

Molecule | Inhibition rate (%) LRRC4B (amino acids 36-576)-hFc [1, 3] [%] | Inhibition rate (%) LRRC4B (amino acids 453-576)-hFc [2, 3] [%] | inhibition of interaction between FAM19A5 and the coated LRRC4B protein fragments (in words) ([1]; 20 nM peptide) | Inhibition rate (%) LRRC4B (amino acids 36-576)-hFc [1, 4] [%] | Inhibition rate (%) LRRC4B (amino acids 453-576)-hFc [2, 5] [%] | inhibition of FAM19A5 binding to coated full-length LRRC4B ectodomain protein (in words) [1]
GYAYFTTVTVETLETQPGEE [FB-20[A2]] | 1.0 | −0.4 | – | – | – | –
GYNYFTTVTVETLETQPGEE [FB-20[N2]] | −0.7 | −2.0 | – | – | – | –
GYTAFTTVTVETLETQPGEE [FB-20[A3]] | 5.9 | 0.0 | – | – | – | –
GYTNFTTVTVETLETQPGEE [FB-20[N3]] | −5.0 | 4.0 | – | – | – | –
GYTYFTAVTVETLETQPGEE [FB-20[A6]] | 17.9 | 11.0 | – | – | – | –
GYTYFTNVTVETLETQPGEE [FB-20[N6]] | −11.4 | −0.4 | – | – | – | –
GYTYFTTVNVETLETQPGEE [FB-20[N8]] | 2.9 | −2.4 | – | – | – | –
GYTYFTTVTNETLETQPGEE [FB-20[N9]] | 17.5 | 6.5 | – | – | – | –
GYTYFTTVTVEALETQPGEE [FB-20[A11]] | 73.4 | 50.3 | – | – | – | –
GYTYFTTVTVETAETQPGEE [FB-20[A12]] | 73.0 | 56.2 | – | – | – | –
GYTYFTTVTVETLATQPGEE [FB-20[A13]] | 51.4 | 27.2 | – | – | – | –
GYTYFTTVTVNTLETQPGEE [FB-20[N10]] | 27.0 | 10.8 | – | – | – | –
KNFTTVTVETNKETQ [FB-m8dN] | – | – | failed to significantly inhibit | 3.3 | −1.1 | –
KNTYFTTVTVETNKETQ [FB-m10dN] | – | – | failed to significantly inhibit | 7.7 | 0.0 | –
KNYTYFTTNKETQ [FB-m6dC] | – | – | failed to significantly inhibit | 14.9 | 5.5 | –

The next lines start with the values.

Inhibition rate (%) LRRC4B (amino acids 36-576)-hFc [1, 3] [%] | Inhibition rate (%) LRRC4B (amino acids 453-576)-hFc [2, 3] [%] | inhibition of interaction between FAM19A5 and the coated LRRC4B protein fragments (in words) ([1]; 20 nM peptide) | Inhibition rate (%) LRRC4B (amino acids 36-576)-hFc [1, 4] [%] | Inhibition rate (%) LRRC4B (amino acids 453-576)-hFc [2, 5] [%] | inhibition of FAM19A5 binding to coated full-length LRRC4B ectodomain protein (in words) [1] | Molecule
17.2 | 3.6 | – | – | – | – | GATYFTTVTVETLETQPGEE [FB-20[A1]]
11.9 | 3.1 | – | – | – | – | GNTYFTTVTVETLETQPGEE [FB-20[N1]]
2.7 | 1.5 | – | – | – | – | GYTYATTVTVETLETQPGEE [FB-20[A4]]
53.4 | 22.2 | – | – | – | – | GYTYFATVTVETLETQPGEE [FB-20[A5]]
56.1 | 30.5 | – | – | – | – | GYTYFNTVTVETLETQPGEE [FB-20[N5]]
26.8 | 7.9 | – | – | – | – | GYTYFTTATVETLETQPGEE [FB-20[A7]]
24.5 | 8.3 | – | – | – | – | GYTYFTTNTVETLETQPGEE [FB-20[N7]]
3.9 | −0.4 | – | – | – | – | GYTYFTTVAVETLETQPGEE [FB-20[A8]]
21.5 | 3.8 | – | – | – | – | GYTYFTTVTAETLETQPGEE [FB-20[A9]]
19.6 | 6.4 | – | – | – | – | GYTYFTTVTVATLETQPGEE [FB-20[A10]]
74.1 | 55.6 | – | – | – | – | GYTYFTTVTVENLETQPGEE [FB-20[N11]]
−1.3 | 2.5 | – | – | – | – | GYTYNTTVTVETLETQPGEE [FB-20[N4]]
– | – | failed to significantly inhibit | 2.0 | −1.8 | – | KNTTVTVETNKETQ [FB-m7dN]
– | – | failed to significantly inhibit | 2.5 | −1.6 | – | KNYFTTVTVETNKETQ [FB-m9dN]
– | – | failed to significantly inhibit | 4.4 | 0.4 | – | KNYTYFTTVNKETQ [FB-m7dC]
– | – | – | – | – | also able to inhibit the interaction | LRRC4B (482-497): LRRC4B ectodomain fragment, amino acids 482-497 of SEQ ID NO: 2 (GGYTYFTTVTVETLET; also: dimerising Fc or GST fusion left off)
– | – | – | – | – | also able to inhibit the interaction | LRRC4B (482-576): LRRC4B ectodomain fragment, amino acids 482-576 of SEQ ID NO: 2 (protein) GGYTYFTTVTVETLETQPGEEALQPRGTEKEPPGPTTDGVWGGGRPGDAAGPASSSTTAPAPRSSRPTEKAFTVPITDVTENALKDLDDVMKTTK
